Test [1] addresses T1, monkey CD33-His protein (monkey).
T1 construct: also called monkey CD33 protein
The experiment in a line: ELISA on coated monkey CD33-his. (In general: ELISA stands for enzyme-linked immunosorbent assay.)

In test [2] the target is T1, monkey CD33-His protein. The test can be described thus: ELISA on coated monkey CD33-his. The source holds these as a separate data set.
The target of test [3] is T2, human CD33-His (extracellular domain Asp 18-His 259) (human, UniProt P20138 18-259).
T2 construct: range 18-259; bought protein; also called hCD33-his; human CD33 protein; not shown: His tag
T2 sequence (P20138 18-259 limits assumed): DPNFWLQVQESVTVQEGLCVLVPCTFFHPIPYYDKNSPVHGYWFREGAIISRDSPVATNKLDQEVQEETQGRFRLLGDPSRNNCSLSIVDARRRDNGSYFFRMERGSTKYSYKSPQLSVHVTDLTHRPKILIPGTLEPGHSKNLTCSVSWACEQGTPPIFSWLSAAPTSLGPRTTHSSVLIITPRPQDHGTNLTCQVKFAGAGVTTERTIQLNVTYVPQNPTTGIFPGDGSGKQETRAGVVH
The test can be described thus: competitive ELISA vs coated S006-NB147-225 2ug/mL; soluble 25ug/ml. As for the experimental part: VHH antibodies and control antibodies with known epitopes were subjected to epitope classification with competitive ELISA. ELISA plates were coated with 2 μg/mL antibodies according to the method in Example 5.1; the human CD33-his protein was subjected to a gradient dilution from 30 μg/mL, and EC80 values (Tables 26-27) were calculated. ELISA plates were coated with 2 μg/mL antibodies; after 25 µg/mL of antibodies to be tested were added, a human CD33-his protein having an EC80 concentration corresponding to each of the antibodies to be tested was then added for incubation for 2 h. The plates were washed 5 times with PBS, then HRP-labeled anti-His antibodies (purchased from GenScript, Cat. No. A00612) were added for incubation for 1 h, and the plates were washed 5 times. A TMB substrate was added at 50 μL/well and incubated at room temperature for 10 min, then a stop solution (1.0 M HCl) was added at 50 μL/well. OD_{450 nm} values were read using an ELISA plate reader (Insight, purchased from PerkinElmer), and the competition rate between the antibodies was calculated according to the OD_{450 nm} values using a formula. The results are shown in FIGS. 12A-12B, the higher the value of the competition rate, the closer the epitopes to which two antibodies bind.

Test [4] deals with T3, human CD33-his protein (human, UniProt P20138 18-259).
T3 construct: range 18-259; bought protein; also called hCD33-his; recombinant human CD33-his; not shown: His tag
T3 sequence (P20138 18-259 limits assumed): as above
The experiment in a line: competition ELISA, coated human CD33-his, vs Biotin-C33B904 at EC80; antibody 0.49 nM. As for the experimental part: (§1) The plate was sealed with a plastic film and incubated at 4° C. overnight, washed twice with PBS the next day, and a blocking solution [PBS+2% (w/w) BSA] was added for blocking at room temperature for 2 h. The blocking solution was discarded, and VHH-Fc antibody or negative control antibody serially diluted from 100 nM was added at 50 μL/well. After incubation at 37° C. for 2 h, the plate was washed 3 times with PBS. A secondary antibody labeled with HRP (horseradish peroxidase) (purchased from Sigma, Cat. No. A0170) was added. After incubation for 1 h at 37° C., the plate was washed 5 times with PBS. A TMB substrate was added at 50 μL/well. After incubation at room temperature for 10 min, a stop solution (1.0 N HCl) was added at 50 μL/well. The OD450 nm values were read on an ELISA plate reader (Multimode Plate Reader, EnSight, purchased from Perkin Elmer). The assay results for the binding of the VHH-Fc to hCD33-his by ELISA are shown in FIGS. 7A and 7B and Tables 11 and 12. […] The IgG control was hIgG1, and the data in the table are OD450 nm values.
(§2) ELISA plates were coated with 2 μg/mL human CD33-his protein according to the method in Example 5.1; the Biotin-C331B904 antibody was subjected to a gradient dilution from 15 μg/mL, and EC80 values (0.18 μg/mL) were calculated. […] OD_{450 nm} values were read using an ELISA plate reader (Insight, purchased from PerkinElmer). […]

For test [5], the target named is T3, human CD33-his protein. The test can be described thus: competition ELISA, coated human CD33-his, vs Biotin-C33B904 at EC80; antibody 15.63 nM. As for the experimental part: as §1, §2
The target of test [6] is T3, human CD33-his protein. The test can be described thus: competition ELISA, coated human CD33-his, vs Biotin-C33B904 at EC80; antibody 31.25 nM. As for the experimental part:
ELISA plates were coated with 2 μg/mL human CD33-his protein according to the method in Example 5.1; the Biotin-C331B904 antibody was subjected to a gradient dilution from 15 μg/mL, and EC80 values (0.18 μg/mL) were calculated. ELISA plates were coated with 2 μg/mL human CD33-his protein; starting from 40 μg/mL, the VHH antibodies to be tested were diluted in a 1:2 dilution ratio to obtain seven concentrations and added to the ELISA plates, and then Biotin-C331904 antibodies with the EC80 concentrations were added for incubation for 2 h. The plates were washed 5 times with PBS and then […] (purchased from Sigma, Cat. No. S2438) were added for incubation for 1 h, and the plates were washed 5 times. A TMB substrate was added at 50 μL/well and incubated at room temperature for 10 min, then a stop solution (1.0 M HCl) was added at 50 μL/well. OD_{450 nm} values were read using an ELISA plate reader (Insight, purchased from PerkinElmer). Then, analysis was performed by software (GraphPad Prism8), and data were fitted for curve plotting. The results are shown in FIGS. 13A-13B and Tables 28 and 29.

Test [7] concerns the target T3, human CD33-his protein. The test can be described thus: competition ELISA, coated human CD33-his, vs Biotin-C33B904 at EC80; antibody 15.63 nM. As for the experimental part:
as §1, §2
The source holds these as a separate data set.

The target of test [8] is T3, human CD33-his protein. The test can be described thus: competition ELISA, coated human CD33-his, vs Biotin-C33B904 at EC80; antibody 62.50 nM. As for the experimental part:
as §1, §2

Test [9] deals with T3, human CD33-his protein. The experiment in a line: competition ELISA, coated human CD33-his, vs Biotin-C33B904 at EC80; antibody 250.00 nM. As for the experimental part: as §1, §2

What is called EC50 (read off the curve) is the concentration at which the effect is half-maximal.

Where two headings read alike, the source gives them in different places.

B1: C33B904 hIgG1 (antibody, V domains shown)
VH: EVQLVESGGGLVQPGRSLRLSCAASGFTFDDYAMHWVRQAPGKGLEWVSGIGWSGGSIVYADSVKGRFTISRDNAKNSLYLQMNSLRAEDTALYYCAKDSPYGDFFDYWGQGTLVTVSS
VL: DIVMTQSPDSLAVSLGERATINCKSSQTVFYSSNNKNYLAWYQQKPGQPPKLLISWASTRKSGVPDRFSGSGSGTDFTLTVSSLQAEDVAVYYCQHYYSTPYTFGQGTKLEIKR
notes: intact human IgG1; variable regions from US20190382481A1; also called C33B3904; C331B904
As for B1, the “EC50 (read off the curve)” value in test [1] was about 0.3 nM; in [2], about 0.1 nM. In test [3], the inhibition rate is 96%.

B2: C33B904 (antibody, human IgG1, kappa, V domains shown)
VH: B1 VH
VL: B1 VL
notes: control antibody, intact human IgG1 form; variable regions from US20190382481A1; also called C33B904 hIgG1; C331B904
In the case of B2, the “OD450 (Biotin-C33B904 signal)” value in [4] turned out to be 2.44; in [5], 1.03; in [6], 0.66; in test [7] it was 0.88; in test [8], 0.24; in [9] it was 0.1.

The values are drawn from patent publication US20240124575A1 (SIMCERE ZAIMING PHARMACEUTICAL, published 2024).
